Values quoted from earlier work in patent publication US20140242093A1, “METHODS AND COMPOSITIONS FOR MODULATING THE INNATE IMMUNE RESPONSE AND/OR MYOGENESIS IN A MAMMALIAN SUBJECT” (FRED HUTCHINSON CANCER RESEARCH CENTER, priority 2011, published 2014).

Tested on: cultured human skeletal muscle cells
Conditions: cited from earlier work

B1: DUX4-s: short splice form of DUX4 (SEQ ID NO:112), keeps the double-homeobox domains, lacks the C-terminal activation domain (protein, listed as Homo sapiens)
chain: MALPTPSDSTLPAEARGRGRRRRLVWTPSQSEALRACFERNPYPGIATRERLAQAIGIPEPRVQIWFQNERSRQLRQHRRESRPWPGRRGPPEGRRKRTAVTGSQTALLLRAFEKDRFPGIAAREELARETGLPESRIQIWFQNRRARHPGQGGRAPAQV
  toxicity of forced over-expression: not toxic
